Assay results: publication PMC3919264

Experiments:
[1] = molecular target: taxol-polymerized microtubules from bovine brain tubulin (bovine (purified from bovine brain)) (UniProt Q6B856)
[2] = molecular target: taxol-polymerized microtubules from bovine brain tubulin (bovine (purified from bovine brain)) (UniProt Q6B856); assay: co-sedimentation; MT pelleting assay with 2 mM AMP-PNP: Kif15 19-375 (1–12 µM) mixed with taxol-polymerized MTs (5 µM), 50 mM PIPES pH 6.9, 20 mM NaCl, 2 mM MgCl2, 1 mM DTT, room temperature 10 min, 100 000g at 25°C for 20 min, SDS–PAGE of supernatants and pellets
[3] = molecular target: taxol-polymerized microtubules from bovine brain tubulin (bovine (purified from bovine brain)) (UniProt Q6B856); remark: listed apart in the source
[4] = molecular target: taxol-polymerized microtubules from bovine brain tubulin (bovine (purified from bovine brain)) (UniProt Q6B856); assay: co-sedimentation; MT pelleting assay with 4 mU apyrase ('nucleotide-free' state): Kif15 19-375 (1–12 µM) mixed with taxol-polymerized MTs (5 µM), 50 mM PIPES pH 6.9, 20 mM NaCl, 2 mM MgCl2, 1 mM DTT, room temperature 10 min, 100 000g at 25°C for 20 min, SDS–PAGE of supernatants and pellets

B1: Homo sapiens Kif15 motor domain and neck-linker region (Kif15 19-375) (domain or fragment)
chain: QPSNEGDAIKVFVRIRPPAERSGSADGEQNLCLSVLSSTSLRLHSNPEPKTFTFDHVADVDTTQESVFATVAKSIVESCMSGYNGTIFAYGQTGSGKTFTMMGPSESDNFSHNLRGVIPRSFEYLFSLIDREKEKAGAGKSFLCKCSFIEIYNEQIYDLLDSASAGLYLREHIKKGVFVVGAVEQVVTSAAEAYQVLSGGWRNRRVASTSMNRESSRSHAVFTITIESMEKSNEIVNIRTSLLNLVDLAGSERQKDTHAEGMRLKEAGNINRSLSCLGQVITALVDVGNGKQRHVCYRDSKLTFLLRDSLGGNAKTAIIANVHPGSRCFGETLSTLNFAQRAKLIKNKAVVNEDTQG
MT activation of Mant-ADP release, stopped flow, 25°C, various MT concentrations with chasing Mg2+-ATP (MTs here from pig brain tubulin; preliminary data) [1]: 1000 fold | Kd [2]: 500 nM | stoichiometry N [2]: 1.1 | K 0.5,MT of the MT-stimulated ATPase activity (MTs 0 to 10 µM, 1 mM ATP, no KCl, 25°C) [3]: 1.1 µM | Kd [4]: 400 nM | stoichiometry N [4]: 1.3
